Source: patent publication US20240116985A1 (published 2024)
Starred links: 1 amine or outer side, 2 acyl side, 3 side chain; linkers in the order of their positions; H or OH if unused. Positions of bridges follow the written chain, without caps; N, C: chain ends. Non-standard residues stand in square brackets, D forms with d. Primed or numbered codes have the meaning given here. B5(15) = 2-amino-2-(pent-4-en-1-yl)hept-6-enoic acid (2,2-bis(4-pentenyl)glycine), stitching residue bearing two staples, C=CCCCC(CCCC=C)(N[*:1])C(=O)[*:2]; PyrS2″ = (S)-3-amino-1-((pent-4-en-1-yloxy)carbonyl)pyrrolidine-3-carboxylic acid (stapling residue), C=CCCCOC(=O)N1CC[C@@](N[*:1])(C(=O)[*:2])C1; B5(23) = 2-amino-2-(pent-4-en-1-yl)hept-6-enoic acid (2,2-bis(4-pentenyl)glycine), stitching residue, C=CCCCC(CCCC=C)(N[*:1])C(=O)[*:2]; TfeGA = (S)-2-amino-3-((carboxymethyl)(2,2,2-trifluoroethyl)amino)propanoic acid, O=C([C@H](CN(CC(=O)[*:3])CC(F)(F)F)N[*:1])[*:2]; B5(3) = 2,2-bis(4-pentenyl)glycine (stitching residue), C=CCCCC(CCCC=C)(N[*:1])C(=O)[*:2]; Phe(3-COOH) = N[C@@H](Cc1cccc(C(=O)O)c1)C(=O)O; Phe(2-Cl) = N[C@@H](Cc1ccccc1Cl)C(=O)O; Bta = N[C@@H](Cc1csc2ccccc12)C(=O)O; αAllylPro = C=CC[C@@]1(C(=O)O)CCCN1; tBuAla = CC(C)(C)C[C@H](N)C(=O)O; 3Thi = N[C@@H](Cc1ccsc1)C(=O)O; S8 = C=CCCCCCC[C@](C)(N)C(=O)O; PyrS2(4) = not defined here

What was measured:
[1] = molecular target: T1, B-cat-Halo (beta-catenin HaloTag NanoBRET construct expressed in HEK293 cells) (UniProt P35222 1-781); experiment: cell-based or functional assay
T1 sequence (looked up): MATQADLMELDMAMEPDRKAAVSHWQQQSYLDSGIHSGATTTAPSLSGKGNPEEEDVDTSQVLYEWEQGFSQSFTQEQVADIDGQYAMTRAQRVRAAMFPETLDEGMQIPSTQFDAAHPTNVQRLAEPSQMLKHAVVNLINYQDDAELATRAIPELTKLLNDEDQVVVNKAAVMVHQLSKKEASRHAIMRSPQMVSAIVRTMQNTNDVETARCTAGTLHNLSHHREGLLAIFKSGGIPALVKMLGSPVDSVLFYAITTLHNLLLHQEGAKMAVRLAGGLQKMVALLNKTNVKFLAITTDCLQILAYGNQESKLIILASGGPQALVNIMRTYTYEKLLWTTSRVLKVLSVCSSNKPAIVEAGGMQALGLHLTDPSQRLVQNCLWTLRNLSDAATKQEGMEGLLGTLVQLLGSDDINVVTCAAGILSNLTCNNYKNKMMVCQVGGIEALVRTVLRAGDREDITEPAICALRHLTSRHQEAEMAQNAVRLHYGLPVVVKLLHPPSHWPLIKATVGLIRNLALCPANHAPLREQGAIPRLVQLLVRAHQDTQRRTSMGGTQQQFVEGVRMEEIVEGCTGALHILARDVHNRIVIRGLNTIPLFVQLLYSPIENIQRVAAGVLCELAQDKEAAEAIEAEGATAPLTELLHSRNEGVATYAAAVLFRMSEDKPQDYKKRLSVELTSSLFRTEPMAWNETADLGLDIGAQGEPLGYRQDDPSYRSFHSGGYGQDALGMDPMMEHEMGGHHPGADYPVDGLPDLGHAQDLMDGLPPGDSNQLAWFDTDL

[2] = molecular target: T2, full-length beta-Catenin (Uniprot ID P35222) (Homo sapiens (Human), UniProt P35222 2-781); experiment: fluorescence polarization competition; displaces 5FAM-TCF4(10-53) from full-length beta-catenin
T2 construct: full-length; also called bCat; B-Catenin
T2 sequence: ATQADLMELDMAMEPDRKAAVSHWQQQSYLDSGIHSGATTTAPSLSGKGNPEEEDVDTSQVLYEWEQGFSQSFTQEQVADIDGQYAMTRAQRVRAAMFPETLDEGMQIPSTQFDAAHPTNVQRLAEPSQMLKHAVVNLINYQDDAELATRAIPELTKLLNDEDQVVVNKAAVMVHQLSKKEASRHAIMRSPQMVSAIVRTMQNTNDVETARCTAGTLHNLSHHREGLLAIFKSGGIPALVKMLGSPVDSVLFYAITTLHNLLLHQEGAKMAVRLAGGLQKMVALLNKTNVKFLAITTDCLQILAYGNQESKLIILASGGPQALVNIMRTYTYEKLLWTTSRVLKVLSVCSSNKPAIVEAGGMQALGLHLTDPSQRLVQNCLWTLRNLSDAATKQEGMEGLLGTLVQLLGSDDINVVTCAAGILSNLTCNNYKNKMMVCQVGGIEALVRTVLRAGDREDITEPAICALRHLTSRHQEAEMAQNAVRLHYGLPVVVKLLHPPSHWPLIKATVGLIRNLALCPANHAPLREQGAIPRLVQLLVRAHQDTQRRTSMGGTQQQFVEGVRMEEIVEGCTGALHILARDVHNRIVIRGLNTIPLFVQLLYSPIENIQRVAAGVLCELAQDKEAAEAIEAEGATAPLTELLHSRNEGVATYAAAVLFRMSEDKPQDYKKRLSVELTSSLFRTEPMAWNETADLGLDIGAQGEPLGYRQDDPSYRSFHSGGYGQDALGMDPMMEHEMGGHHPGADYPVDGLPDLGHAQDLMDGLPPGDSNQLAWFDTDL
Description: The plate was incubated protected from light for 60 minutes at 20° C. prior to read. Reads were performed on a CLARIOstar plate reader (BMG Labtech) in duplicate, and data were fitted to a 1:1 binding model with hill slope using an in-house script. All provided concentrations are final concentrations.

B-cat-Halo = molecular target: T3, B-cat-Halo (Homo sapiens (Human), UniProt P35222 1-781); experiment: cell-based or functional assay
T3 sequence: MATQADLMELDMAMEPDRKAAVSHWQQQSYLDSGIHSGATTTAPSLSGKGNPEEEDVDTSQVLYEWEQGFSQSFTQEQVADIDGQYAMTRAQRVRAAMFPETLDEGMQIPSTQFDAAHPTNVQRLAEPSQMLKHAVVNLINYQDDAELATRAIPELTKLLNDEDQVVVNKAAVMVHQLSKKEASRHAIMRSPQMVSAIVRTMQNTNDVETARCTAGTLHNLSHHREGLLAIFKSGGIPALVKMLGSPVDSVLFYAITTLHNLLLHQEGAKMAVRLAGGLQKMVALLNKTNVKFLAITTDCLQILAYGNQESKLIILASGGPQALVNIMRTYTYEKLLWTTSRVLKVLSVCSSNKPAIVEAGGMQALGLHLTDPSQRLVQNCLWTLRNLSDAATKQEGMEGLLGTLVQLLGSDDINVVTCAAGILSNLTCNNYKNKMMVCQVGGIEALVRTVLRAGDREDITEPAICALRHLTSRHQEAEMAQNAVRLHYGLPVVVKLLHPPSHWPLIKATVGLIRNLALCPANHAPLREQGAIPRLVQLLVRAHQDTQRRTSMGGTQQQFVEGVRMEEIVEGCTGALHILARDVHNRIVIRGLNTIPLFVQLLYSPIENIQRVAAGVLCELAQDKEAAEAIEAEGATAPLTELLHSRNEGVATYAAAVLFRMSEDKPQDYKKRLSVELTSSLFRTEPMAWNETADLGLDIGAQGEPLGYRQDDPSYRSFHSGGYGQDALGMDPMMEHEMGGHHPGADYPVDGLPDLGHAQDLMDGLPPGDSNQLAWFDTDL

| Binder | NanoBRET Abs IC50 [1] [µM] | IC50 [2] [nM] | NanoBRET Abs IC50 (B-cat-Halo) [µM] |
| --- | --- | --- | --- |
| Ac-[αAllylPro]DN[B5(15)]DEAAFL[S8]F[Bta]Q-NH2 (staple 1-4, 4-11, Stapled peptide composition; also called Ac-PL3-Asp-Asn-B5-Asp-Glu-Ala-Ala-Phe-Leu-S8-Phe-BztA-Gln-NH2) [I-1533] | > 20 | 76 |  |
| Ac-[αAllylPro]DF[B5(23)]DEAAFL[S8]F[Bta]Q-NH2 (staple 1-4, 4-11, Stapled peptide composition; also called Ac-PL3-Asp-Phe-B5-Asp-Glu-Ala-Ala-Phe-Leu-S8-Phe-BztA-Gln-NH2) [I-1550] | 15.3 | 22 |  |
| Ac-[αAllylPro]D[tBuAla][B5(3)]D[Phe(3-COOH)]AAFS[PyrS2″][3Thi][Bta]N-NH2 (staple 1-4, 4-11) [I-2045] |  |  | 13.5 |
| Ac-[αAllylPro]D[tBuAla][B5(3)]D[Phe(3-COOH)]AAFL[PyrS2″][Phe(2-Cl)][Bta]NAAA-NH2 (staple 1-4, 4-11) [I-2040] |  |  | 2.8 |
| Ac-[αAllylPro]D[tBuAla][B5(3)]D[TfeGA]AAFL[PyrS2″][3Thi][Bta]Q-NH2 (staple 1-4, 4-11; not fully specified (residue 9)) [I-2048] |  |  | 28.8 |
| Ac-[αAllylPro]D[tBuAla][B5(3)]D[Phe(3-COOH)]AAFS[PyrS2(4)][Phe(2-Cl)][Bta]N-NH2 (staple 1-4, 4-11; not fully specified; reading uncertain; also: staple isomer, earlier eluting HPLC peak) [I-2038] |  |  | 11.8 |
| Ac-[αAllylPro]D[tBuAla][B5(3)]D[Phe(3-COOH)]SAFL[PyrS2″][3Thi][Bta]A-NH2 (staple 1-4, 4-11) [I-2050] |  |  | 4.9 |
| Ac-[αAllylPro]D[tBuAla][B5(3)]D[Phe(3-COOH)]AAFA[PyrS2″][3Thi][Bta]N-NH2 (staple 1-4, 4-11) [I-2042] |  |  | 10 |
| Ac-[αAllylPro]D[tBuAla][B5(3)]D[Phe(3-COOH)]AAFL[PyrS2″][3Thi][Bta]NAAA-NH2 (staple 1-4, 4-11) [I-2046] |  |  | 2.9 |
| Ac-[αAllylPro]D[tBuAla][B5(3)]D[Phe(3-COOH)]AAFF[PyrS2″][3Thi][Bta]N-NH2 (staple 1-4, 4-11) [I-2044] |  |  | 2.6 |
| Ac-[αAllylPro]D[tBuAla][B5(3)]D[Phe(3-COOH)]NAFL[PyrS2″][3Thi][Bta]A-NH2 (staple 1-4, 4-11) [I-2049] |  |  | 4.5 |
| Ac-[αAllylPro]D[tBuAla][B5(3)]D[Phe(3-COOH)]AAFS[PyrS2″][Phe(2-Cl)][Bta]N-NH2 (staple 1-4, 4-11) [I-2039] |  |  | 10.5 |
| Ac-[αAllylPro]D[tBuAla][B5(3)]D[Phe(3-COOH)]AAFF[PyrS2″][Phe(2-Cl)][Bta]N-NH2 (staple 1-4, 4-11) [I-2037] |  |  | 5 |
